# Laboratory results: patent publication US20190336574A1 (TRUSTEES OF PRINCETON UNIVERSITY, published 2019)
# T1: HA-SND1, full-length human, wild type (human, UniProt Q7KZF4 1-910)
# T1 construct: Full-length, HA-tagged; Expressed in HEK293T cells, tested in lysate; also called HA-tagged SND1; WT HA-SND1
# T1 sequence: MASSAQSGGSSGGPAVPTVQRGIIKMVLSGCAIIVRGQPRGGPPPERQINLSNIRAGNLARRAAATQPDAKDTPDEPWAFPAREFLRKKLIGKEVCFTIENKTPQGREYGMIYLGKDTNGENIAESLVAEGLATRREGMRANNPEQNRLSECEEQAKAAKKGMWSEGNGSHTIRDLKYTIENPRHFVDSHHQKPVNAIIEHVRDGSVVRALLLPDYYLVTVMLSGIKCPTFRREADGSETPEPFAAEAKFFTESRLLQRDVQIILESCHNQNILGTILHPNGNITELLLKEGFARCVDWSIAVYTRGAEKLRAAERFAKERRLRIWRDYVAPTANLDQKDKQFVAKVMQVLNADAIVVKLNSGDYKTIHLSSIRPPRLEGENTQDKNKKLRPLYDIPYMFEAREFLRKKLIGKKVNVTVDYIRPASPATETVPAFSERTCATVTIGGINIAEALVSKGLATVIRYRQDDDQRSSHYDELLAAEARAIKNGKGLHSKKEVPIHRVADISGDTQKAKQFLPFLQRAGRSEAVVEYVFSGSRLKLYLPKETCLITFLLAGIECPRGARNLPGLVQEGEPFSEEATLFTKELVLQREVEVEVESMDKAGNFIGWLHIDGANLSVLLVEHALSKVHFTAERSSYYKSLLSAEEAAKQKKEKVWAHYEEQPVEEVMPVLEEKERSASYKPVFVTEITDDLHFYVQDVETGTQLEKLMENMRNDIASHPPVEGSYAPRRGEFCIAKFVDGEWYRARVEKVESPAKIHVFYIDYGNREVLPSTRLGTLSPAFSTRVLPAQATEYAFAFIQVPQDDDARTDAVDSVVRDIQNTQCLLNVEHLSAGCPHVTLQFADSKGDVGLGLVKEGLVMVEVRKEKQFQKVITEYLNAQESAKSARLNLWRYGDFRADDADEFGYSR
# T2: His-SND1 (16-339), SN1/2 domains, wild type (human, UniProt Q7KZF4 16-339)
# T2 construct: also called His6-SND1 harboring the SN1/2 domains; not shown: N-terminal His tag (His6, His8 or His) with TEV site, pQlink vector
# T2 sequence: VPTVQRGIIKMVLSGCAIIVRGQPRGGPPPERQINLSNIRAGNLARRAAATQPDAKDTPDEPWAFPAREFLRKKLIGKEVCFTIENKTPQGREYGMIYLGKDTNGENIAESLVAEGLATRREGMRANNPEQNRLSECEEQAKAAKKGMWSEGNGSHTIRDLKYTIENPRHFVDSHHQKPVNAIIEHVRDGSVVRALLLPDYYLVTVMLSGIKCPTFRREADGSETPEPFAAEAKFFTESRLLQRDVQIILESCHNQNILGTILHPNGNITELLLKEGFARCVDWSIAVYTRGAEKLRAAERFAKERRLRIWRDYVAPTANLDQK
# T3: murine SND1, wild type (mouse, UniProt Q78PY7 1-910)
# T3 construct: Endogenous protein of murine PyMT mammary tumor cells; also called SND1 (in PyMT tumor cells); WT shRNA-resistant murine SND1
# T3 sequence (looked up): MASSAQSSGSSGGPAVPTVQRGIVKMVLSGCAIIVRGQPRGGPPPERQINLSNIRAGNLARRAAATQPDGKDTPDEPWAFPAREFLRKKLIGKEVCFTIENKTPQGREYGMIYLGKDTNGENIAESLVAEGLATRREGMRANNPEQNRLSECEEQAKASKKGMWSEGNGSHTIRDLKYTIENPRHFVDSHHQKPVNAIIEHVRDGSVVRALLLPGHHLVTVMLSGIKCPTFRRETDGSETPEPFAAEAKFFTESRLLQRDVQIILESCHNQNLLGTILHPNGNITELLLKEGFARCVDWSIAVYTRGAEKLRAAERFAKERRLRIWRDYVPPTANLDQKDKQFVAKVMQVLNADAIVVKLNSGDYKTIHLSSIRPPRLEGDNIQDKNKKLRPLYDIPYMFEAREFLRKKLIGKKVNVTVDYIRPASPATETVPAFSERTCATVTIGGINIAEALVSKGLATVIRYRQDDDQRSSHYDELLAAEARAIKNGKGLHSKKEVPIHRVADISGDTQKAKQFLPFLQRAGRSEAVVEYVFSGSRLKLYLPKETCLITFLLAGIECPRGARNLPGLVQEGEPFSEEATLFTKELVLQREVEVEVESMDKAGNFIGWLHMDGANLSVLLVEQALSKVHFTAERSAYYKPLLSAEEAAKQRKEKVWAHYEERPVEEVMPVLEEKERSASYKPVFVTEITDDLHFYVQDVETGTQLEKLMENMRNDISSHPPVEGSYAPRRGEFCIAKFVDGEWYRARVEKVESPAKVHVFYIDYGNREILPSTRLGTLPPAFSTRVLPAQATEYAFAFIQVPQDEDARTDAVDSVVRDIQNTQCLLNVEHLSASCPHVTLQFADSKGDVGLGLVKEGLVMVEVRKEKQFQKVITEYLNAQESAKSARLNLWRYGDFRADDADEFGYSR
# How the values were obtained:
# [1] = target: T1, HA-SND1, full-length human, wild type; assay: competition in co-IP, 50 uM peptide; competitor MTDH
# Procedure: 293 T cells were co-transfected with HA-SND1 and MYC-MTDH. After 48 hours, the cells were collected and subject to immunoprecipitation assay. Cell lysate was incubated with anti-HA antibody or IgG overnight followed by a two hour incubation with Protein A/G beads to pull down HA-SND1 protein. The beads were washed with lysis buffer and split into five fractions.
# The elution fractions and beads were collected for western blot. (FIGS. 26C and 26D) Cell lyaste was split into 6 fractions. One of the fractions was incubated with IgG and the rest were incubated with anti-HA antibody plus either buffer or indicated peptides. After 24 hours, the lysate was incubated with Protein A/G beads then the beads was washed followed by wash buffer. 50 uM of peptides was used in all the assays.
# [2] = target: T2, His-SND1 (16-339), SN1/2 domains, wild …; assay: GST pull-down on glutathione resin, SDS-PAGE, Coomassie blue; normalised percentage of binding, mean±SEM of three experiments
# Source text: The proteins bound to GS4B were examined on SDS-PAGE and visualized by Coomassie blue staining. […] The bound proteins were examined as in (FIG. 22A). For both (FIG. 22A) and (FIG. 22B), experiments were repeated three times; representative results are shown. The normalized percentage of binding was averaged from three experiments; mean±SEM was shown below the data. (FIG. 22C) HEK293T cells were transfected with human HA-SND1, WT Myc-MTDH or Myc-MTDH with indicated single point mutation. Lysates were immunoprecipitated with anti-Myc antibody and immunoblotted with the indicated antibodies. (FIG. 22D) HEK293T cells were transfected with human Myc-MTDH, WT HA-SND1 or mutant HA-SND1 with indicated single point mutations or deletions. Lysates were immunoprecipitated with anti-Myc and immunoblotted with the indicated antibodies.
# (§1) GST-Mediated Pull-Down Assay: ˜20 μg of GST-MTDH (different truncation forms and site mutants) was bound to 10 μl of glutathione resin via GST tag. The resin was washed with 200 μl assay buffer (25 mM Tris, PH8.0, 150 mM NaCl, 3 mM DTT) three times to remove the excess unbound protein. […] The mixture was washed with 200 μl assay buffer twice before examined by SDS-PAGE, and visualized by Coomassie blue staining. The experiments were repeated 3 times and the ratio of SND1 associated with GST-MTDH was analyzed by ImageJ.
# Identification of MTDH and SND1 mutants deficient in binding: To gain insight into how the interface characterized above contributes to MTDH-SND1 interaction, structure-guided mutagenesis studies were performed.
# [3] = target: T2, His-SND1 (16-339), SN1/2 domains, wild …; assay: GST pull-down of His-SND1 (16-339), SDS-PAGE, Coomassie
# Procedure: as §1
# murine SND1, wild type = target: T3, murine SND1, wild type; assay: anti-MTDH co-IP from PyMT;Mtdh-/- MECs reconstituted with murine MTDH, western blot
# Procedure: (FIG. 8A, FIG. 8E) Lysates from PyMT;Mtdh−/− MECs reconstituted with vector control, WT or mutant murine MTDH were immunoprecipitated with anti-MTDH antibody and immunoblotted for indicated proteins. (FIG. 8B, FIG. 8F) Mammosphere assays were performed with PyMT;Mtdh−/− pMECs reconstituted with indicated Mtdh constructs. (FIG. 8C, FIG. 8D, FIG. 8G, FIG. 8H) In vivo tumor formation (FIG. 8C, FIG. 8G for tumor incidence; FIG. 8D, FIG. 8H for tumor volumes) were performed at limiting numbers using PyMT;Mtdh−/− pMECs reconstituted with indicated WT or mutant MTDH. *Note: mouse W391D MTDH corresponds to human W394D MTDH; and mouse W398D MTDH corresponds to human W401D MTDH. Statistics: (FIG. 8B, […]) Student's t-test. (FIG. 8C, FIG. 8G) Limiting dilution analysis. (FIG. 8D, FIG. 8H) Mann-Whitney test. Data represent mean±SEM. ***p<0.001, **p<0.01, *p<0.05.
# Immunoprecipitation and western blot For immunoprecipitation (IP) experiments, cultured cells were washed in cold PBS and lysed in lysis buffer (20 mM Tris pH 7.4, 0.15 M NaCl, 1 mM EDTA, 1 mM EGTA, 1% Tx-100, 0.0025 M Na2P2O7, 1 mM α-glycerolphosphate, 1 mM Na3VO4, and 1 mM NaF) with an EDTA-free protease inhibitor mixture (Roche Applied Science) and PMSF. Cell lysates were then incubated on ice for 10 min, centrifuged, and precleared by incubating with protein A/G beads (Santa Cruz Biotechnology) for 1 h at 4° C. […]
binder,measurement,setting,value
PNSDWNAPAEEAGNW (also called peptide comprising the single point mutation W401A) [Peptide-401A (PNSDWNAPAEEAGNW)],effectiveness in blocking the MTDH-SND1 interaction relative to the wild type peptide,[1],~0.5 fold of wild type peptide
"GST-MTDH (364-582) W394A (other, not shown: N-terminal GST tag with TEV site, pQlink vector) YQWDVSRNQPYIDDEWSGLNGLSSADPNSDANAPAEEWGNWVDEERASLLKSQEPIPDDQKVSDDDKEKGEGALPTGKSKKKKKKKKKQGEDNSTAQDTEELEKEIREDLPVNTSKTRPKQEKAFSLKTISTSDPAEVLVKNSQPIKTLPPATSTEPSVILSKSDSDKSSSQVPPILQETDKSKSNTKQNSVPPSQTKSETSWESPKQIKKKKKARRET",% Maximum binding,[2],1%
same,binding result,[3],no binding
"W398D* (other, mouse, UniProt Q80WJ7 1-579, looked up, point mutant W398D, murine numbering; named in the legend's footnote and on the sheet; also called mouse W398D MTDH (corresponds to human W401D MTDH)) single chain: MAARSWQDELAQQAEEGSARLRELLSVGLGFLRTELGLDLGLEPKRYPGWVILVGTGALGLLLLFLLGYGWAAACAGARKKRRSPPRKREEAAPPTPAPDDLAQLKNLRSEEQKKKNRKKLPEKPKPNGRTVEVPEDEVVRNPRSITAKQAPETDKKNEKSKKNKKKSKSDAKAVQNSSRHDGKEVDEGAWETKISHREKRQQRKRDKVLTDSGSLDSTIPGIENIITVTTEQLTTASFPVGSKKNKGDSHLNVQVSNFKSGKGDSTLQVSSRLNENLTVNGGGWSEKSVKLSSQLSEEKWNSVPPASAGKRKTEPSAWTQDTGDTNANGKDWGRNWSDRSIFSGIGSTAEPVSQSTTSDYQWDVSRNQPYIDDEWSGLNGLSSADPSSDWNAPAEEDGNWVDEDRASLLKSQEPISNDQKVSDDDKEKGEGALPTGKSKKKKKKKKKQGEDNSHTQDTEDLEKDTREELPVNTSKARPKQEKACSLKTMSTSDPAEVLIKNSQPVKTLPPAISAEPSITLSKGDSDNSSSQVPPMLQDTDKPKSNAKQNSVPPSQTKSETNWESPKQIKKKKKARRET",binding result,"murine SND1, wild type",no binding
